From the supplement of paper PMC5998384

Assays:
HeLa Kyoto [1] = assay: melting temperature (median over replicates), in situ; higher = more thermally stable
HeLa Kyoto [2] = assay: solubility change mitosis vs G1/S (difference of NP-40 vs SDS log2 ratios) (log2 ratio difference); higher = more soluble in mitosis
HeLa Kyoto [3] = assay: solubility in G1/S (NP-40 vs SDS abundance) (log2 ratio); higher = more soluble; conditions: cell cycle stage: G1/S
HeLa Kyoto [4] = assay: thermal stability score vs G1/S (z-score of summed log2 fold changes over temperatures); higher = more thermally stable than in G1/S
[5] = cell cycle stage: early G1 (4.5 h after nocodazole release)
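Throughout, for melting temperature (median over replicates), in situ: HeLa Kyoto cells synchronized by double thymidine or nocodazole block, proteins quantified by TMT10plex mass spectrometry, three independent biological replicates.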
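Throughout, for solubility change mitosis vs G1/S (difference of NP-40 vs SDS log2 ratios): synchronized HeLa Kyoto cells (double thymidine block for G1/S, nocodazole release for mitosis), protein amounts in NP-40 versus SDS lysates quantified by mass spectrometry, three biological replicates.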
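Throughout, for solubility in G1/S (NP-40 vs SDS abundance): HeLa Kyoto cells arrested at G1/S by double thymidine block, proteins quantified by TMT10plex mass spectrometry in mild NP-40 versus SDS extracts, three biological replicates.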
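Throughout, for thermal stability score vs G1/S (z-score of summed log2 fold changes over temperatures): synchronized HeLa Kyoto cells, proteins quantified by TMT10plex mass spectrometry, three biological replicates, mitosis taken 0.5 h after nocodazole release, G1/S directly after double thymidine block.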

| Sequence | melting temperature (HeLa Kyoto [1]; cell cycle stage: G1/S) | melting temperature (HeLa Kyoto [1]; cell cycle stage: mitosis) | solubility change mitosis (log2) (HeLa Kyoto [2]) | solubility in G1/S (log2) (HeLa Kyoto [3]) | thermal stability score (HeLa Kyoto [4]; [5]) | thermal stability score (HeLa Kyoto [4]; cell cycle stage: mitosis) |
| --- | --- | --- | --- | --- | --- | --- |
| MNKKKKPFLGMPAPLGYVPGLGRGATGFTTRSDIGPARDANDPVDDRHAPPGKRTVGDQMKKNQAADDDDEDLNDTNYDEFNGYAGSLFSSGPYEKDDEEADAIYAALDKRMDERRKERREQREKEEIEKYRMERPKIQQQFSDLKRKLAEVTEEEWLSIPEVGDARNKRQRNPRYEKLTPVPDSFFAKHLQTGENHTSVDPRQTQFGGLNTPYPGGLNTPYPGGMTPGLMTPGTGELDMRKIGQARNTLMDMRLSQVSDSVSGQTVVDPKGYLTDLNSMIPTHGGDINDIKKARLLLKSVRETNPHHPPAWIASARLEEVTGKLQVARNLIMKGTEMCPKSEDVWLEAARLQPGDTAKAVVAQAVRHLPQSVRIYIRAAELETDIRAKKRVLRKALEHVPNSVRLWKAAVELEEPEDARIMLSRAVECCPTSVELWLALARLETYENARKVLNKARENIPTDRHIWITAAKLEEANGNTQMVEKIIDRAITSLRANGVEINREQWIQDAEECDRAGSVATCQAVMRAVIGIGIEEEDRKHTWMEDADSCVAHNALECARAIYAYALQVFPSKKSVWLRAAYFEKNHGTRESLEALLQRAVAHCPKAEVLWLMGAKSKWLAGDVPAARSILALAFQANPNSEEIWLAAVKLESENDEYERARRLLAKARSSAPTARVFMKSVKLEWVQDNIRAAQDLCEEALRHYEDFPKLWMMKGQIEEQKEMMEKAREAYNQGLKKCPHSTPLWLLLSRLEEKIGQLTRARAILEKSRLKNPKNPGLWLESVRLEYRAGLKNIANTLMAKALQECPNSGILWSEAIFLEARPQRRTKSVDALKKCEHDPHVLLAVAKLFWSQRKITKAREWFHRTVKIDSDLGDAWAFFYKFELQHGTEEQQEEVRKRCESAEPRHGELWCAVSKDIANWQKKIGDILRLVAGRIKNTF [PRPF6] | 46.8 °C | 48.1 °C | 0.428 | -0.849 | 1.08 | 5.32 |
| MERREEQPGAAGAGAAPALDFTVENVEKALHQLYYDPNIENKNLAQKWLMQAQVSPQAWHFSWQLLQPDKVPEIQYFGASALHIKISRYWSDIPTDQYESLKAQLFTQITRFASGSKIVLTRLCVALASLALSMMPDAWPCAVADMVRLFQAEDSPVDGQGRCLALLELLTVLPEEFQTSRLPQYRKGLVRTSLAVECGAVFPLLEQLLQQPSSPSCVRQKVLKCFSSWVQLEVPLQDCEALIQAAFAALQDSELFDSSVEAIVNAISQPDAQRYVNTLLKLIPLVLGLQEQLRQAVQNGDMETSHGICRIAVALGENHSRALLDQVEHWQSFLALVNMIMFCTGIPGHYPVNETTSSLTLTFWYTLQDDILSFEAEKQAVYQQVYRPVYFQLVDVLLHKAQFPSDEEYGFWSSDEKEQFRIYRVDISDTLMYVYEMLGAELLSNLYDKLGRLLTSSEEPYSWQHTEALLYGFQSIAETIDVNYSDVVPGLIGLIPRISISNVQLADTVMFTIGALSEWLADHPVMINSVLPLVLHALGNPELSVSSVSTLKKICRECKYDLPPYAANIVAVSQDVLMKQIHKTSQCMWLMQALGFLLSALQVEEILKNLHSLISPYIQQLEKLAEEIPNPSNKLAIVHILGLLSNLFTTLDISHHEDDHEGPELRKLPVPQGPNPVVVVLQQVFQLIQKVLSKWLNDAQVVEAVCAIFEKSVKTLLDDFAPMVPQLCEMLGRMYSTIPQASALDLTRQLVHIFAHEPAHFPPIEALFLLVTSVTLTLFQQGPRDHPDIVDSFMQLLAQALKRKPDLFLCERLDVKAVFQCAVLALKFPEAPTVKASCGFFTELLPRCGEVESVGKVVQEDGRMLLIAVLEAIGGQASRSLMDCFADILFALNKHCFSLLSMWIKEALQPPGFPSARLSPEQKDTFSQQILRERVNKRRVKEMVKEFTLLCRGLHGTDYTADY [IPO13] | 51.2 °C | 51 °C | -0.175 | -0.335 | -0.535 | -0.562 |
| MVLLTMIARVADGLPLAASMQEDEQSGRDLQQYQSQAKQLFRKLNEQSPTRCTLEAGAMTFHYIIEQGVCYLVLCEAAFPKKLAFAYLEDLHSEFDEQHGKKVPTVSRPYSFIEFDTFIQKTKKLYIDSRARRNLGSINTELQDVQRIMVANIEEVLQRGEALSALDSKANNLSSLSKKYRQDAKYLNMRSTYAKLAAVAVFFIMLIVYVRFWWL [SEC22B] | 51.3 °C | 52.2 °C | 0.0289 | -0.0184 | 4.24 | 5.81 |
| MLPYTVNFKVSARTLTGALNAHNKAAVDWGWQGLIAYGCHSLVVVIDSITAQTLQVLEKHKADVVKVKWARENYHHNIGSPYCLRLASADVNGKIIVWDVAAGVAQCEIQEHAKPIQDVQWLWNQDASRDLLLAIHPPNYIVLWNADTGTKLWKKSYADNILSFSFDPFDPSHLTLLTSEGIVFISDFSPSKPPSGPGKKVYISSPHSSPAHNKLATATGAKKALNKVKILITQEKPSAEFITLNDCLQLAYLPSKRNHMLLLYPREILILDLEVNQTVGVIAIERTGVPFLQVIPCFQRDGLFCLHENGCITLRVRRSYNNIFTTSNEEPDPDPVQELTYDLRSQCDAIRVTKTVRPFSMVCCPVNENAAALVVSDGRVMIWELKSAVCNRNSRNSSSGVSPLYSPVSFCGIPVGVLQNKLPDLSLDNMIGQSAIAGEEHPRGSILREVHLKFLLTGLLSGLPAPQFAIRMCPPLTTKNIKMYQPLLAVGTSNGSVLVYHLTSGLLHKELSIHSCEVKGIEWTSLTSFLSFATSTPNNMGLVRNELQLVDLPTGRSIAFRGERGNDESAIEMIKVSHLKQYLAVVFRDKPLELWDVRTCTLLREMSKNFPTITALEWSPSHNLKSLRKKQLATREAMARQTVVSDTELSIVESSVISLLQEAESKSELSQNISAREHFVFTDIDGQVYHLTVEGNSVKDSARIPPDGSMGSITCIAWKGDTLVLGDMDGNLNFWDLKGRVSRGIPTHRSWVRKIRFAPGKGNQKLIAMYNDGAEVWDTKEVQMVSSLRSGRNVTFRILDVDWCTSDKVILASDDGCIRVLEMSMKSACFRMDEQELTEPVWCPYLLVPRASLALKAFLLHQPWNGQYSLDISHVDYPENEEIKNLLQEQLNSLSNDIKKLLLDPEFTLLQRCLLVSRLYGDESELHFWTVAAHYLHSLSQEKSASTTAPKEAAPRDKLSNPLDICYDVLCENAYFQKFQLERVNLQEVKRSTYDHTRKCTDQLLLLGQTDRAVQLLLETSADNQHYYCDSLKACLVTTVTSSGPSQSTIKLVATNMIANGKLAEGVQLLCLIDKAADACRYLQTYGEWNRAAWLAKVRLNPEECADVLRRWVDHLCSPQVNQKSKALLVLLSLGCFFSVAETLHSMRYFDRAALFVEACLKYGAFEVTEDTEKLITAIYADYARSLKNLGFKQGAVLFASKAGAAGKDLLNELESPKEEPIEE [WDR11] | 52.8 °C | 53.4 °C | -0.106 | -0.123 | 1.39 | 0.377 |
| MASSSPDSPCSCDCFVSVPPASAIPAVIFAKNSDRPRDEVQEVVFVPAGTHTPGSRLQCTYIEVEQVSKTHAVILSRPSWLWGAEMGANEHGVCIGNEAVWTKEPVGEGEALLGMDLLRLALERSSSAQEALHVITGLLEHYGQGGNCLEDAAPFSYHSTFLLADRTEAWVLETAGRLWAAQRIQEGARNISNQLSIGTDISAQHPELRTHAQAKGWWDGQGAFDFAQIFSLTQQPVRMEAAKARFQAGRELLRQRQGGITAEVMMGILRDKESGICMDSGGFRTTASMVSVLPQDPTQPCVHFLTATPDPSRSVFKPFIFGMGVAQAPQVLSPTFGAQDPVRTLPRFQTQVDRRHTLYRGHQAALGLMERDQDRGQQLQQKQQDLEQEGLEATQGLLAGEWAPPLWELGSLFQAFVKRESQAYA [SCRN2] | 51 °C | 51.1 °C | -0.201 | 0.282 | 0.593 | 0.947 |
| MALPFRKDLEKYKDLDEDELLGNLSETELKQLETVLDDLDPENALLPAGFRQKNQTSKSTTGPFDREHLLSYLEKEALEHKDREDYVPYTGEKKGKIFIPKQKPVQTFTEEKVSLDPELEEALTSASDTELCDLAAILGMHNLITNTKFCNIMGSSNGVDQEHFSNVVKGEKILPVFDEPPNPTNVEESLKRTKENDAHLVEVNLNNIKNIPIPTLKDFAKALETNTHVKCFSLAATRSNDPVATAFAEMLKVNKTLKSLNVESNFITGVGILALIDALRDNETLAELKIDNQRQQLGTAVELEMAKMLEENTNILKFGYQFTQQGPRTRAANAITKNNDLVRKRRVEGDHQ [TMOD3] | 49.4 °C | 50.5 °C | 0.296 | 0.293 | -0.553 | 0.573 |
| MLALISRLLDWFRSLFWKEEMELTLVGLQYSGKTTFVNVIASGQFSEDMIPTVGFNMRKVTKGNVTIKIWDIGGQPRFRSMWERYCRGVNAIVYMIDAADREKIEASRNELHNLLDKPQLQGIPVLVLGNKRDLPNALDEKQLIEKMNLSAIQDREICCYSISCKEKDNIDITLQWLIQHSKSRRS [ARL8B] | 55.2 °C | 56 °C | -0.232 | -0.0397 | -1.93 | -1.85 |
| MATATPVPPRMGSRAGGPTTPLSPTRLSRLQEKEELRELNDRLAVYIDKVRSLETENSALQLQVTEREEVRGRELTGLKALYETELADARRALDDTARERAKLQIELGKCKAEHDQLLLNYAKKESDLNGAQIKLREYEAALNSKDAALATALGDKKSLEGDLEDLKDQIAQLEASLAAAKKQLADETLLKVDLENRCQSLTEDLEFRKSMYEEEINETRRKHETRLVEVDSGRQIEYEYKLAQALHEMREQHDAQVRLYKEELEQTYHAKLENARLSSEMNTSTVNSAREELMESRMRIESLSSQLSNLQKESRACLERIQELEDLLAKEKDNSRRMLTDKEREMAEIRDQMQQQLNDYEQLLDVKLALDMEISAYRKLLEGEEERLKLSPSPSSRVTVSRASSSRSVRTTRGKRKRVDVEESEASSSVSISHSASATGNVCIEEIDVDGKFIRLKNTSEQDQPMGGWEMIRKIGDTSVSYKYTSRYVLKAGQTVTIWAANAGVTASPPTDLIWKNQNSWGTGEDVKVILKNSQGEEVAQRSTVFKTTIPEEEEEEEEAAGVVVEEELFHQQGTPRASNRSCAIM [LMNB1] | 51.1 °C | 50.1 °C | 1.92 | -1.97 | -12 | -7.18 |
